Measured values as given in the supplement of paper PMC12636428.

Test system: Saccharomyces cerevisiae
Assay: transcriptional activation domain activity (GFP:mCherry ratio, weighted mean of sorted bins, harmonized to initial dataset scale) (arbitrary fluorescence ratio units); higher = stronger transcriptional activation
Settings: beta-estradiol 1 µM; induction time 4 h
Experimental: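 53-aa protein tiles (fungal proteins plus yeast TF control tiles) fused C-terminally to a DBD-estrogen-binding domain-mCherry synthetic TF, integrated in S. cerevisiae (URA3 locus) with a GFP reporter. Cells were induced with 1 uM beta-estradiol for 4 h at 30 C, FACS-sorted into 8 bins by GFP:mCherry ratio and barcodes sequenced. Activity is the read-weighted mean bin fluorescence (GFP:mCherry), averaged over barcodes (median 12); tiles under 50 reads were discarded. New active-learning values were harmonized by linear fit onto the scale of the initial (Hummel et al.) dataset. The assay saturates at low and high signal.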

| Sequence | transcriptional activation domain activity |
| --- | --- |
| DDPDVEESDDEPVELWVARGEDRCDACKQRNIRVCEPQWGAPRSSACKTCARK | 31700 |
| SKEKLSAVENSHAIKLEIILEGIGSIMLSHPNDMQLLSRVVRLLVRVAIQFRR | 56500 |
| PYILPLLILSKRLHSIFMLRCFNDCFAILFLFLAILCFQRRHWTVGSLIYSWG | 48300 |
| CLFFFSLFSLFILIFLSFLFFPPTSCFPSLYFLFYLSHFLLSFSFLYLYRYRF | 39500 |
| EAEQEVQQKPAKGKKALAAAKSSAEDAEPEAAPAPKKSALKDGEASAAAPAPS | 21800 |
| MHHELLRPILRLGHLMWTICFWMRRIMINAESPYRKTILHVRRSNWLFRRIIT | 81600 |
| CMELMLHYIYVVAISNSSPDWSAYTPFQLSMLGYFNLHHIWLKLLIPWRFFRL | 80500 |
| MATLDEALDNEGGKRRRSHKKSRRGCGDCRRRRVKCSEENPRCQACVRRGVQC | 67400 |
| VKAAAPKRGGRKKKVEAKAEAGDEVEAAVFEKKEVEEEEKEKGGEKEVKETVE | 9930 |
| GGKKGGRTKGATARDKSPEGRTDRPASKGKSLKTGGEDGKGKKSGERAGKLAH | 60400 |
| ESVSESESASASESAAEEASAAPEEDAMWSNIMKKFARRDEEESVSESASASE | 54900 |
| MSLLWIYFLSFFPFFCQNLTLLCFYAHIWTLRITPTFVLAFHLVYPLIIHLPV | 27100 |
| LPTSFLEYCFRLICLWKPHLIREYFKEWFIFPNVVGWKYILQTFFNILEHVHD | 46600 |
| QNLFGYLERSLNRSTKLRATGMLKEGMVRIFIQKIEGSPFEVTMQFARKFFTA | 35900 |
| FKSMIFFLWFLDTLQLAFVIHALYYYLITSYGNIVALMKPTWSILLQIYVTSL | 69400 |
| VFVPIPGLRNRRVHILLPNLYLLHQITFFRFSRRRSTLVLLLVCVSIVFAMYA | 36500 |
| ASNAPGTGASRSAAAAATAAISRAKGAAQQQQAQKKPDASSSRPAGKQPAVKE | 26900 |
| PRTASRRAARSARPRRQSSPRPKGRRSNTRPSKRASVSPAKDSDASDGDDERE | 19400 |
| FLVAFLLMCLHSPDKSTVAMLILGVFSLLLLLFWAASLSFDGQPSKYGWLLRH | 50200 |
| MYLFFLFYILEFAVRSESGPICASNTKCIGRYCVYCKCTSLLSRVLRLLFICC | 64300 |
| FFHVTIRVASQSCGIAFGILGFSNFPVFLAYLILGAEGYFSLVLCAFRFLISW | 75000 |
| GALRLAASQEGIKLGDDVKSNVKMVLGKDAQGGFAVSAEVTVSGNGVTKALVD | 31300 |
| TWLLFRQVVDVILINDFLAYCMFAFSCFRVPTDLSIPVHVMRWLVGITLIWFN | 74100 |
| KIHLVNLLQISVLFVHRFIFGLVPLFEITTCAFFPLLISLWHLDYILFYVVMF | 53800 |
| APKAAAPPPAPVPAPAPVAAPAPAASVELGPDGQPKRRRGRPKGSKNKPKIPP | 35700 |
| VRTARQQLMEAAMKTFQLAVGPSEYLPNLALGYQYMACLRWLTHFNIFFHIPL | 71400 |
| MLILLLLLLLLLLLLLLLIMIMIMILMIFLLLFMILIFLLVIMREFCWLWVLW | 44900 |

| Sequence | transcriptional activation domain activity |
| --- | --- |
| NSTPAKVEEEAEAKPEEAKPEGEEVAKEEEEKKDEEPKPAIGDVVPDAVAVGQ | 25300 |
| VVEALRLPLKPIQLLSKLFLRRLYEQDQLEEIRGIAKQIKIELYLLVALNVLL | 54000 |
| EFVQVAAKPVAKKEESSDEDSDDESEDEKPAAKKAAAPVKVCSGFPYANIALI | 32200 |
| MITRRTGGNSGNWVPSIRVQEGVLTKGFRPINMRSELVRLHEVVILVVGMEMD | 47100 |
| ADIICMIYLIVNYTLLVFVSEVPYHQRARICLRLFCSCNFVTNFYATSAIVYR | 51100 |
| MTKPIIIKINHIFALRHYYLPYFHPYILFVFFSSLFTLRGTMWLILLFFGSFA | 50300 |
| MLYVRCVISYIHIYNIFIHVTVSVHPEWWAFVSLTCFTLHVYLLHFLSAVARC | 67000 |
| QDAGGSGDKKGGVYVHCAMGKSRSVTCVVAYLLYRYPHRYGGTAGSSSTAQRR | 45800 |
| GFTFYFSLHFHIFHIFHYLWEPRATILFFLTSLLFFFFTPIFTFMHCIIFIGF | 78900 |
| ITFLFIFFFYFFTYSFFYISFFRTCFPEFAHQMFEMVLLWNLFLLFVFCLFFF | 57600 |
| SSSNQQTRTRDGPKKKKANRACLHCQKAHLTCDDSRPCQRCVRRGMANSCTEG | 29900 |
| LALFGMKMVEAIMTMIHMDFRYCDFLGILPLLIFLIPCHYFYTLLKIKALLTY | 60600 |
| TSSPQKGAEKEEAAEAEPEKEKEAEAEAPASPQKRITPMKRGRGRPKRGGAAV | 27500 |
| GAVNLSSNERVVFSCRGEVLESKFGRSSKLSPRTFVVTTSKFYIVVQMLVSGQ | 37800 |
| RLLIVFAWMCRLGCWIEMDHEARLVLLKFLATFKANSNNVISYKLDQYYLTGL | 80100 |
| MESRARISTSVILYLCARLRSIAVITYMIVVRSLSTFVYLAQRFFILLWPIIW | 55600 |
| MKVDSYTDYLTGIFIHCGLYDTNHDPNYPALYYRCVLLDSTWLVGLLTCFLWL | 65100 |
| GAGAGGKVGGGAGAGAGAGAGAGHLGGGAEGGGKIGAGAGGKVGGEIGAGGKI | 25000 |
| MMFETHFWSLSSLLLFFFSFFLFLSLYLGVSILFFQFPFPFPFPFPFFFYLFL | 39500 |
| SDESTKADSGNKDNPGGAEKSGDEKEKEKDGGTSRMRSRKGKFRKNKAEDIEK | 30400 |
| MNCRIVWNRCCGGLVPRFLLFLWCFGTVGYYRYFFSMGLGILLLWYILVLTTV | 50600 |
| EFEVDSIDELVLILKESEQSDMLRRIGYCRKRMMSLLRLLVTKVDVVKTITKR | 38100 |
| GDEDEEDTAELKEEALKGLIAVLVCASVLSIVRALMHSQLDLSILELLVDNMT | 53600 |
| LLKNNILKWMCLVFRFVTRRVRFTYLTLPLATRCVGQGLVYIIRIIQDGHSYI | 43100 |
| FVWILETLNTGFSAHAIEYFAIYNKGNMMMLWSVPWTISVSNNLLCSTLGLNH | 32200 |
| MPIPLRLPFPFCFWVRMGLLDVYYHTVGGLYGYVLGGGVVICWRWWCFSFFCL | 55500 |
| MFIYVFRPCNCIHLFIICQFSLFLITLLLYLFDLFFQLPFLLCINLTFCVAMC | 64900 |

| Sequence | transcriptional activation domain activity |
| --- | --- |
| ISTAYFSNECGLVDRLITLAFLALKSKTDMSMVAYHSYCAIIEASLHSRGIWN | 57300 |
| ELILVQDLCGTFCCSMQFLVLMDLLGNVVLPSSVIFFYYLIFAYFFGYPVAMP | 60100 |
| MSSLFFSFQAVQFWFLGFLGLSWFRLVSTSYNIVDFLSFLSVHHHVLSWLGIP | 63500 |
| AKEEKKEEKKEEAKAAEEVKPEETPAVEETKAEEAKVDEAKTEETPAVAAAAA | 15700 |
| NITKILVMKFFTIDFTFTIMYITGLLITFLYYLVGYFQMNVKLLGSDRAYFAF | 35700 |
| PFLLLLPVSLFSFLFFHFFYLFVSFSFFLFCYFFYFLHFFLTFLIFLLFLTFL | 34900 |
| YGILTLQYLVGVIWVLDTLHTIFVTHMVYTYLVTNFGDYLALGHNIWSFNLHV | 37100 |
| CFSILFSRFAGPSIYLGMRILIMLLYVTLTLWTPWLFYFWVSILSLCIAPFLF | 44300 |
| STATESGLAARSKDQIFCIPVPGQPWVDVRLRTLSESINSLLLLATLIKRCPV | 59300 |
| CFFLFYIIHLPLLFIHITKSMYVLIVSRFVSSFPVSVGWAVGRAHGFGPLFAQ | 51900 |
| AFEVSGKGRSRTREKVTLDLEELAGGAIDMSKSDLEHLVIHLFIKSYLRMSFV | 43100 |
| GSTHPRQVFDQLDDCSSILFSPLTTNTNNEFEGESDDFVHSPYLNSEADFSQI | 75200 |
| SGDPDEDGNGHGTHCSGTVAGKKYGVAKKANVYAVKVLRSNGSGSMSDVVKGV | 19600 |
| TTGGLFGGGAANTGTTGGFGSGGGFGSSTTGGGGLFGNAGNQPKPAGLFGSST | 27700 |
| AVGLPNPHAHTLLQSLYYLRSITFSLLRLKMEQRLSLLIPSYLTIWKLDRKAL | 68400 |
| FAGLSYFVYDLHTMLSSIVIICVIVADFLYFGSILLPALWLECPYRVPLLFRP | 71900 |
| RDKDDRRRHRDRDDQSSRSHRHHRHRDGDSDRDGDGHRHKRSRHSKAEEAKPS | 28800 |
| KSVLERILVRGAMGSERHMKHELKVFYAMRGKLSWFIKWVHVVLRWVFAKSVL | 48000 |
| AEYDVVLLKRLLYELNGRRNRLMVLPSRLALWEIVMPWVIDLVCRVRFNVTYT | 64600 |
| TGSTIVRGVLHVFSDQKVNLEQISFGQLNKMIGLLGERRDYRTLSWLLTILWN | 73300 |
| IIVKTEIMIRNRHPRFLRITLDSVSNLVRLWYIVRLKKLTYYYLLWEFSLLPL | 49700 |
| ELKKFADGVDRERKERAKSANGCCGFCGREEEALPKCGRCKETRYCSPSVRAC | 33000 |
| HCIEAGIKLVSQFIDMYKEFSPGGKLCQVCWMLTNFSMNDFLLGVMVLCLVIH | 56200 |
| LLLPFVVRRFGCWVCGFYLVLLFFIFPLLLYVVLSSCFSILFTSPFIFYFSSF | 61200 |
| RRTPFLGVGRSEGKMRLEKFVDEIGQQREDGTDEFLVRGSKEEKTDVVTAVNH | 9610 |
